# Results from article PMC3248148.
# Target: human p23 co-chaperone (human) (UniProt Q15185)
# Assay: SEC; HiPrep Sephacryl S-200; each protein alone; 50mM Hepes, 150mM NaCl, 50mM KCl, 10mM MgCl2, 1mM DTT, pH 7.5; molecular weight interpolated from standards
substance,measurement,value
human p23 co-chaperone (from UniProt Q15185 1-160) (natural protein),stoichiometry N,2
